{"source": "paper doi:10.1101/2023.04.10.536218", "target": "major capsid protein VP1 of sheep polyomavirus (ShPyV) (sheep polyomavirus (ShPyV))", "assay": "crystal structure", "data": [{"substance": "major capsid protein VP1 of sheep polyomavirus (ShPyV) (natural protein)", "values": [{"measurement": "stoichiometry N", "value": 5}]}]}
